Data: paper PMC4827055

Biological target: human Toll-like receptor 5 (TLR5) expressed on HEK293 cells (human) (UniProt O60602)
UniProt O60602, sequence (O60602 21-858): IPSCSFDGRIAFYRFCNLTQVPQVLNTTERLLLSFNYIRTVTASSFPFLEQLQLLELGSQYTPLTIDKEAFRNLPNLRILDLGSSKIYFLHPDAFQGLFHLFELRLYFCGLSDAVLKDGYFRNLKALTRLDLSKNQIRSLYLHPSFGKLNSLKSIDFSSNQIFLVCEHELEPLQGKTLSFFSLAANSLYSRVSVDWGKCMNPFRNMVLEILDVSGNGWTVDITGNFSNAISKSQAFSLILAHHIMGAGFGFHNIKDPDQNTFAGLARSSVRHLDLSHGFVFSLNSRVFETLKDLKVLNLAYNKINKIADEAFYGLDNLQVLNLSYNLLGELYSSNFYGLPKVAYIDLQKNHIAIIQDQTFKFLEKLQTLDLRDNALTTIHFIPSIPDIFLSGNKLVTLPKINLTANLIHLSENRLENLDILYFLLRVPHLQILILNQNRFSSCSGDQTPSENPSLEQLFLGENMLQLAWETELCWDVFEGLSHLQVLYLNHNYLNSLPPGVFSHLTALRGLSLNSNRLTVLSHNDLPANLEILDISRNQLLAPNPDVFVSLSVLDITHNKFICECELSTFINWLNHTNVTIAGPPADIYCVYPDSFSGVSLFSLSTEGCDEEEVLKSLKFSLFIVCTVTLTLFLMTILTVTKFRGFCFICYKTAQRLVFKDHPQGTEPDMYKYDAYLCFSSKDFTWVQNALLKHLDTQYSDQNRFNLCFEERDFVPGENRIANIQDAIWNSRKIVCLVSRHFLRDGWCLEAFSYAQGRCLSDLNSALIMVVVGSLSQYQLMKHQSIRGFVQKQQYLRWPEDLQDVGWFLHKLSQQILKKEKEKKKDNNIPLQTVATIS

Substance | EC50 (half maximal induction) of NF-κB luciferase reporter in HEK293/hTLR5 cells, 24 hr stimulation [nM]
recombinant flagellin (rFliC) from Salmonella enterica serovar Typhimurium (from UniProt P06179 1-495) (natural protein) | 0.0067
recombinant flagellin-E7m fusion protein rFliCE7m (E7m fused at the C-terminus of flagellin) (from UniProt P06179 1-495) | 0.0237
